Columns and labels:
[1] = target: T1, N-terminal GST-tagged soluble ectodomain of NRP2 (aa 17-865) (human, UniProt O60462 17-865); test: pull-down; details: both partners purified
T1 construct: not shown: GST, N-terminal, kept
T1 sequence: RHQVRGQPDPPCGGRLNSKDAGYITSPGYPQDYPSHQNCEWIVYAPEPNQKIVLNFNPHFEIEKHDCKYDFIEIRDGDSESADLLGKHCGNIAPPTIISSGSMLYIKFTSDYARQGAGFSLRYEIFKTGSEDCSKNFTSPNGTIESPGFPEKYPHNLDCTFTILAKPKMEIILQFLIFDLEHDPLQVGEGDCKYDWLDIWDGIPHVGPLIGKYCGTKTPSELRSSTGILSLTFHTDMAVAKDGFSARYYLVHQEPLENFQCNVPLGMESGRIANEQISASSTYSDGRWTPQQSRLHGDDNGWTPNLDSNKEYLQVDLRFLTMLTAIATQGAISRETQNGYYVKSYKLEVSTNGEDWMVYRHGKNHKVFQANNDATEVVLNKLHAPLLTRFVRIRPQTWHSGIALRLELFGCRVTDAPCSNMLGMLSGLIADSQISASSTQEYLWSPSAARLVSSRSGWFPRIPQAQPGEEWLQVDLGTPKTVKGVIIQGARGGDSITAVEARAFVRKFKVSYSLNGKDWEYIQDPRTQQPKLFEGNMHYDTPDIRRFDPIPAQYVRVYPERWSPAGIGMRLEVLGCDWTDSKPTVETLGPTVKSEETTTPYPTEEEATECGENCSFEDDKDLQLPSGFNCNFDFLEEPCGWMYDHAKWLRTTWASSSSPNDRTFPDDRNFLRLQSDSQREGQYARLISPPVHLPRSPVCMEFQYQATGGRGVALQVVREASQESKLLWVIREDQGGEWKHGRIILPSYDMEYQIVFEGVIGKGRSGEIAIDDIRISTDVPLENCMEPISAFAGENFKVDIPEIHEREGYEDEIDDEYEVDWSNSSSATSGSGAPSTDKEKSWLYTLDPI

[2] = target: T2, recombinant Fc-tagged NRP2 ectodomain (human, UniProt O60462 21-864); test: […] (10, 20 or 50 µL, […]) in 0.2 mL PBS for 2 h; […]; details: both partners purified
T2 construct: not shown: Fc, C-terminal, kept
T2 sequence: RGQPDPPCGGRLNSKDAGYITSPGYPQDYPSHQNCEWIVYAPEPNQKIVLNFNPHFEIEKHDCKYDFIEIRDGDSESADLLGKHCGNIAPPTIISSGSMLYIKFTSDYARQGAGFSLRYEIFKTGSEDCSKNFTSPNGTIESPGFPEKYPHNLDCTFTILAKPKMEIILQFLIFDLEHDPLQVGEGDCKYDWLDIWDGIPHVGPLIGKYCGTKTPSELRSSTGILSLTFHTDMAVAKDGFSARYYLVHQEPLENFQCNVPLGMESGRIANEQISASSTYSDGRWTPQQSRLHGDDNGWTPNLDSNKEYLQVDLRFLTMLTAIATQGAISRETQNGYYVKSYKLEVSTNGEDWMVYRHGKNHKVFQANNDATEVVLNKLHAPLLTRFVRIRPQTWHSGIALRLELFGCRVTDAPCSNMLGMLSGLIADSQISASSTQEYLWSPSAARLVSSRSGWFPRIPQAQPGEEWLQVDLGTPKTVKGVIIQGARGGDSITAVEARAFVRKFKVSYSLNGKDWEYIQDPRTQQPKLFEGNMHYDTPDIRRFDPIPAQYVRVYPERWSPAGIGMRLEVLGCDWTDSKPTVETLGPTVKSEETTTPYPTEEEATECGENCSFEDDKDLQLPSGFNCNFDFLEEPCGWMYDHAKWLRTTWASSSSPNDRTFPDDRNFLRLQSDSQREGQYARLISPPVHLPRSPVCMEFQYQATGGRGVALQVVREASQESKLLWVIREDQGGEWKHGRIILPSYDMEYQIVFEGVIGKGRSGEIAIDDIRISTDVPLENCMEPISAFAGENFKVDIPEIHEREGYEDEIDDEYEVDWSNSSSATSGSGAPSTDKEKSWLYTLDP

B1: RABV G on purified ERA(G/Flag) particles (natural protein)
chain: KFPIYTILDKLGPWSPIDIHHLSCPNNLVVEDEGCTNLSGFSYMELKVGYILAIKMNGFTCTGVVTEAETYTNFVGYVTTTFKRKHFRPTPDACRAAYNWKMAGDPRYEESLHNPYPDYRWLRTVKTTKESLVIISPSVADLDPYDRSLHSRVFPSGKCSGVAVSSTYCSTNHDYTIWMPENPRLGMSCDIFTNSRGKRASKGSETCGFVDERGLYKSLKGACKLKLCGVLGLRLMDGTWVAMQTSNETKWCPPDQLVNLHDFRSDEIEHLVVEELVRKREECLDALESIMTTKSVSFRRLSHLRKLVPGFGKAYTIFNKTLMEADAHYKSVRTWNEILPSKGCLRVGGRCHPHVNGVFFNGIILGPDGNVLIPEMQSSLLQQHMELLESSVIPLVHPLADPSTVFKDGDEAEDFVEVHLPDVHNQVSGVDLGLPNWGKYVLLSAGALTALMLIIFLMTCCRRVNRSEPTQHNLRGTGREVSVTPQSGKIISSWESHKSGGETRL
binding result [1]: binds
binding result [2]: binds

— article PMC12282144 (Journal of Virology, 2025)
